This data set addresses human GST-E1 (Boston Biochem) (UniProt P22314).

These results are taken from patent US20090317825.

human GST-E1 (Boston Biochem), sequence (P22314 whole entry): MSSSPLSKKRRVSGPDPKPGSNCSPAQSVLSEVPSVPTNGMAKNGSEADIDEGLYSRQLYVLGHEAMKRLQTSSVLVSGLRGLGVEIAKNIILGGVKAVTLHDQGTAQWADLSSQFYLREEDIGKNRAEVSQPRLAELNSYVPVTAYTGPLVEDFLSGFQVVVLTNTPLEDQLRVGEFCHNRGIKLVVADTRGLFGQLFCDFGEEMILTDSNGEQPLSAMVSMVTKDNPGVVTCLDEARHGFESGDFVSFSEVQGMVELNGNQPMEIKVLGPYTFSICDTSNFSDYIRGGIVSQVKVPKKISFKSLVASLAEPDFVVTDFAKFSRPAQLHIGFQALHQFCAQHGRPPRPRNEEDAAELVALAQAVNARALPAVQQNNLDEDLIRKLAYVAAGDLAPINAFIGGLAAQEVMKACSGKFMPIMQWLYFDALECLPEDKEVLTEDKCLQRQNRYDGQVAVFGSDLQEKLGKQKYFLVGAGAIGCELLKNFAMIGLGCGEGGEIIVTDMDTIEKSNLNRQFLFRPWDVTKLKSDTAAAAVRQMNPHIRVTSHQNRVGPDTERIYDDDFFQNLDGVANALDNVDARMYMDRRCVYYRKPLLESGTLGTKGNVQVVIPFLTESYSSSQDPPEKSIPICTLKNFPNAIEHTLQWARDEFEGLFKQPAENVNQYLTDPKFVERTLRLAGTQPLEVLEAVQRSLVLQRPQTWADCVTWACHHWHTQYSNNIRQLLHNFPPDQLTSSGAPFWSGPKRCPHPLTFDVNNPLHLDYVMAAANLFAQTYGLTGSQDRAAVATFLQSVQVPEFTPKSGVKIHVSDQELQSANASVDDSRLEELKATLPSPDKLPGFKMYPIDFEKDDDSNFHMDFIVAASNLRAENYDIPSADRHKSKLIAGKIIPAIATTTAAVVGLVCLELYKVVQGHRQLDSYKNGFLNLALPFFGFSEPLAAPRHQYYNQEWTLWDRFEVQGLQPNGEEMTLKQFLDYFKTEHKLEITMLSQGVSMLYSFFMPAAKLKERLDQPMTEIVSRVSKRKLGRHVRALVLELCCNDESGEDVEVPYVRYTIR

Take “His6-Parkin (full-length human Parkin fused to an N-terminal histidine tag, from E. coli, refolded)”: the “ubiquitination of Parkin in the absence of UbCH7 (biotin-ubiquitin Western blot, NeutrAvidin-HRP)” value is “some reaction product was seen in the absence of UbCH7 when Parkin was incubated with E1 and ubiquitin for 90 minutes”.
